This is an account of results in patent CN114106166A (VIRUS DISEASE PREVENTION AND CONTROL PLACE OF CHINESE …, dated 2022).

As usually defined, the Kd is the free concentration of one partner at which half of the binding sites on the other are occupied at equilibrium, for simple one-to-one binding. Read a high Kd as a looser complex.

The target of one experiment is T1, 新型冠状病毒Omicron变体RBD蛋白 (SARS-CoV-2 Omicron variant, UniProt P0DTC2 319-541).
T1 construct: domain: RBD
The experiment can be described thus: SPR, BIAcore 8000, RBD protein coupled to the chip, 1:1 binding fit. On the technique in general: In SPR one partner is held on a chip, and binding of the other changes the refractive index at the surface.

The next experiment concerns the target T2, 新型冠状病毒Delta变体RBD蛋白 (SARS-CoV-2 Delta variant, UniProt P0DTC2 319-541).
T2 construct: domain: RBD; also called 新冠Delta变体RBD蛋白
The description is as above.

B1: 人源抗新冠病毒中和性抗体D2 (全抗体IgG) (antibody, V domains shown)
VH: EVQLVESGGGLVQPGRSLTLSCGASGFTFEDYAMHWVRQAPGKGLEWVSGIDWNSGVIGYADSVKGRFIISRDNAKNSLYLHMRSLTAEDTALYYCAKDVYSESGSGSYYDYWGQGTLVTVSS
VL: QSVLTQPPSVSAAPGQKVAISCSGSTSNIGDNFVSWYQQFPGTAPKLLLYDDARRPSGIPDRFSGSKSGTSATLGITGLQTGDEAVYFCSTWDNSLNVVLFGGGTKLTVL
notes: also called D2号抗体; 纯化D2抗体
For B1, the Kd in the experiment with 新型冠状病毒Omicron变体RBD蛋白 was found to be 0.011 nM; with 新型冠状病毒Delta变体RBD蛋白, 0.0621 nM.
